Experimental data taken from patent US20250057840.

Columns and labels:
[1] = target: myc-tagged MAGI1 deletion of GUK-WW domains (murine, pCDNA3.1) (UniProt Q6RHR9)
[2] = target: myc-tagged MAGI1 deletion of WW domain (murine, pCDNA3.1) (UniProt Q6RHR9)
[3] = target: GFP-tagged MAGI1 WT (human MAGI1c, pCMV6-AC-GFP-MAGI1c WT, Origene #RG212712) (UniProt Q96QZ7)
[4] = target: GFP-MAGI1 Y373F (human MAGI1c-Y373F-GFP) (UniProt Q96QZ7)
[5] = target: myc-tagged MAGI1 deletion of GUK domain (murine, pCDNA3.1) (UniProt Q6RHR9)
Chain of myc-tagged MAGI1 deletion of GUK domain (murine, pCDNA3.1) (Q6RHR9 other isoform, or with tags, fused parts or gaps): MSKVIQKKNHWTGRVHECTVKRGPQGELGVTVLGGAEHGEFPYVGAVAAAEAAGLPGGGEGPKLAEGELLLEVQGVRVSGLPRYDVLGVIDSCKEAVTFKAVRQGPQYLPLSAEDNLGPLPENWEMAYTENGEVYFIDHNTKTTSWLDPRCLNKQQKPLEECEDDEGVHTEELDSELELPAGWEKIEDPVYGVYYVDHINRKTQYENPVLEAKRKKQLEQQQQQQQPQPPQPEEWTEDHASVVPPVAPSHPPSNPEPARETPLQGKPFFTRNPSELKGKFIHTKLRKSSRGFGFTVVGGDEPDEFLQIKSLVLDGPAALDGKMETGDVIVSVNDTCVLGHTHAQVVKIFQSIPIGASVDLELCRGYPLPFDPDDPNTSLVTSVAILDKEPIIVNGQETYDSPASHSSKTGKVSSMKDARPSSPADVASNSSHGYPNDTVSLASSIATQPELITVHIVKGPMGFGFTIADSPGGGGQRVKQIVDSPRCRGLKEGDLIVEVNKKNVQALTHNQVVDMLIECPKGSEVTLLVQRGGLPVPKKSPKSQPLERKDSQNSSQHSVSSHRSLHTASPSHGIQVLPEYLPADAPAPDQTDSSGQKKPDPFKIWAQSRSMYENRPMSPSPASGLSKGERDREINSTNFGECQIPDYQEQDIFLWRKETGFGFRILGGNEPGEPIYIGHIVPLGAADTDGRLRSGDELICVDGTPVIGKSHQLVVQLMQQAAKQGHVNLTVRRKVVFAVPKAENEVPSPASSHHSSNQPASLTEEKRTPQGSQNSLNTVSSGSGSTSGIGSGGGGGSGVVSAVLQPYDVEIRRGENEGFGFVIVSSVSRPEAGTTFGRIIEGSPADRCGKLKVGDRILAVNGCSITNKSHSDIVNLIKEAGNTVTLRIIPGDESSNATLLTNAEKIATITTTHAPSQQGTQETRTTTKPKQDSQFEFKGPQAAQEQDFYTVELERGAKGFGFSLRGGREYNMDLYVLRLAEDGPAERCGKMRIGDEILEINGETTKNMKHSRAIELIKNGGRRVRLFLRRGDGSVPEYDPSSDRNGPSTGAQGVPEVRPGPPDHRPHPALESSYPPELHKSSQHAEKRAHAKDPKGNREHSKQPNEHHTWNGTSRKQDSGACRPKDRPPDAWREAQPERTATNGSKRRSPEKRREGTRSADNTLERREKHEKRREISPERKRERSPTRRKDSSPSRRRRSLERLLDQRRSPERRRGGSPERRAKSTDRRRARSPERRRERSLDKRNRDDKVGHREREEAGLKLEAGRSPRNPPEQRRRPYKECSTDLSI

Chain of myc-tagged MAGI1 deletion of GUK-WW domains (murine, pCDNA3.1) (Q6RHR9 other isoform, or with tags, fused parts or gaps): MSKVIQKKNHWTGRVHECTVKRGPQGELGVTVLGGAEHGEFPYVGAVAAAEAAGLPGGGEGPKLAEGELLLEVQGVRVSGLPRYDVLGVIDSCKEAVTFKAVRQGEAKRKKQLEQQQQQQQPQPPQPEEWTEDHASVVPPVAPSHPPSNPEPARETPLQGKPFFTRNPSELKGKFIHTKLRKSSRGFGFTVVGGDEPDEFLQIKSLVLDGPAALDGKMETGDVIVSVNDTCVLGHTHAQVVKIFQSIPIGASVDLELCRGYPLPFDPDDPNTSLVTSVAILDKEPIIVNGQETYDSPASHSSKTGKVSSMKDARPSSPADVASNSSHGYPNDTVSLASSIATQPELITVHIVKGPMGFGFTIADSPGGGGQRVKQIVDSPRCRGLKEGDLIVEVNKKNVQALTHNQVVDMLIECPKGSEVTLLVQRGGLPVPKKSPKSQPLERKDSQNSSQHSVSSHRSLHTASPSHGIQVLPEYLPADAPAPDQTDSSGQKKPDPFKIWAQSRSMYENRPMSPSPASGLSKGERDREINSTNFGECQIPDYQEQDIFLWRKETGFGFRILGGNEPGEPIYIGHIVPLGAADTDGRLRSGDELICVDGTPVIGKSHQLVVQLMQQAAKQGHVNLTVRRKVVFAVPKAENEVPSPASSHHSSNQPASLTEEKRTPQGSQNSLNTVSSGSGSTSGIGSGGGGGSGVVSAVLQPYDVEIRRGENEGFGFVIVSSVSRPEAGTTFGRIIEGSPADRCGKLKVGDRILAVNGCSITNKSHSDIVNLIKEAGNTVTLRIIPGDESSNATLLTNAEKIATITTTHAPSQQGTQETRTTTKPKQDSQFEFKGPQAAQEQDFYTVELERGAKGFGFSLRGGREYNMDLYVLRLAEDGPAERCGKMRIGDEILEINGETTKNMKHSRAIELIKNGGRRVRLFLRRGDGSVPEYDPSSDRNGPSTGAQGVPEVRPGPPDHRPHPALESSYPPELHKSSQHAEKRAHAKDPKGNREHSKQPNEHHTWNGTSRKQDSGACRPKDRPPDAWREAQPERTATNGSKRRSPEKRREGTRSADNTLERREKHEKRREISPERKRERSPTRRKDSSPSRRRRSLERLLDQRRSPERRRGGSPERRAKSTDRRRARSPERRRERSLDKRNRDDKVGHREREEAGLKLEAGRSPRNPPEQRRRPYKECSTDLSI
Chain of GFP-MAGI1 Y373F (human MAGI1c-Y373F-GFP) (Q96QZ7 other isoform, or with tags, fused parts or gaps Y373F Y373F): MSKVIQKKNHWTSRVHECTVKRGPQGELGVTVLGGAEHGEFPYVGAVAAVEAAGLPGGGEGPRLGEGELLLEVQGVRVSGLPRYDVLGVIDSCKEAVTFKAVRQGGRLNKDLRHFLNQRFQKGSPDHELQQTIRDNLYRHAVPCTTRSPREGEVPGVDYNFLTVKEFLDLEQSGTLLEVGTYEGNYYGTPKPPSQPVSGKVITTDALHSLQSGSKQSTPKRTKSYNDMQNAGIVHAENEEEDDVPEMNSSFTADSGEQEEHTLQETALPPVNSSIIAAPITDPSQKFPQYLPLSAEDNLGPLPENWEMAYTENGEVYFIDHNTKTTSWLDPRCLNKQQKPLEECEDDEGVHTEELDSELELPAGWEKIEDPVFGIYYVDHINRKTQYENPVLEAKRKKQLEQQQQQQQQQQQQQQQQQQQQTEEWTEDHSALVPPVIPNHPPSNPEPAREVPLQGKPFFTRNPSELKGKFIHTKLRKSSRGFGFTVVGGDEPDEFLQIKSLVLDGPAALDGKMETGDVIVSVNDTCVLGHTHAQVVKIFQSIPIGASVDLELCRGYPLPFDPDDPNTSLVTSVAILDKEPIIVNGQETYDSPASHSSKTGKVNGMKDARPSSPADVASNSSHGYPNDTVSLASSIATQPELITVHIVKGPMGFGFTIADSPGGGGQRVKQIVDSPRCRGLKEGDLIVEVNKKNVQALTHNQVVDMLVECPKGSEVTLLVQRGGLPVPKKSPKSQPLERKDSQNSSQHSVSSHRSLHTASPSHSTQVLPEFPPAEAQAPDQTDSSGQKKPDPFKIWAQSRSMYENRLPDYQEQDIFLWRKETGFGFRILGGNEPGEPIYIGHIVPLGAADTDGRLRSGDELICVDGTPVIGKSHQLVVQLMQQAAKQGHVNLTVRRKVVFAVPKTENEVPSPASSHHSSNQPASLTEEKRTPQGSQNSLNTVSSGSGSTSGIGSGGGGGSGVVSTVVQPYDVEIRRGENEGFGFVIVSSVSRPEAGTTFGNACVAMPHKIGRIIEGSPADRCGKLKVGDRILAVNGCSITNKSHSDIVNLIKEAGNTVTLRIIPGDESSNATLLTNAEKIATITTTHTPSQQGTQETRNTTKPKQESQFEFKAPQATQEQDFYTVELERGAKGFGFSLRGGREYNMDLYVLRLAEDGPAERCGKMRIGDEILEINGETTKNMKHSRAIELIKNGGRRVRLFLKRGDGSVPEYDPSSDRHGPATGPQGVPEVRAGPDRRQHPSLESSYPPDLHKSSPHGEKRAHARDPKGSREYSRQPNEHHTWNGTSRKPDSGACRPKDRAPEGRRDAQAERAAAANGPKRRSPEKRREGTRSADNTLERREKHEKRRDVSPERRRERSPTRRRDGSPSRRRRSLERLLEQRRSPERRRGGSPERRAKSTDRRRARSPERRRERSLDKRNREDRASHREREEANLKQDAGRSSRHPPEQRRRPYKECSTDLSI
Chain of GFP-tagged MAGI1 WT (human MAGI1c, pCMV6-AC-GFP-MAGI1c WT, Origene #RG212712) (Q96QZ7 other isoform, or with tags, fused parts or gaps): as the sequence (Q96QZ7 other isoform, or with tags, fused parts or gaps Y373F Y373F) above, with F373Y counted along it

proto-oncogene tyrosine-protein kinase Src (SRC), wild type, expressed from pCMV SRC WT in 293T cells
Y373 phosphorylation (western blot with pMAGI1 Y373 antisera, 293T co-expression) [1]: Y373 phosphorylation was abolished when WW domain was absent but not GUK
Y373 phosphorylation (western blot with pMAGI1 Y373 antisera, 293T co-expression) [2]: Y373 phosphorylation was abolished when WW domain was absent but not GUK
phosphorylation of MAGI1 at Y373 (western blot with rabbit antisera against pMAGI1 Y373, 293T co-expression) [3]: co-expression of SRC and WT MAGI1 but not Y373F mutant resulted in strong phosphorylation of MAGI1 at Y373
phosphorylation of MAGI1 at Y373 (western blot with rabbit antisera against pMAGI1 Y373, 293T co-expression) [4]: co-expression of SRC and WT MAGI1 but not Y373F mutant resulted in strong phosphorylation of MAGI1 at Y373
Y373 phosphorylation (western blot with pMAGI1 Y373 antisera, 293T co-expression) [5]: Y373 phosphorylation was abolished when WW domain was absent but not GUK
